# Measurements: a protein production outcome set (Wang et al. 2014)
# Experiment: label from the status in PepcDB records
row,Sequence,protein production
1,RIKPGPNGRALLFIHGTFSTTDGSFGDLASAEFFGELARTYGNAIYGFDHYSVSVTPEKNASDILKTLPSGGIDCDVVTHSRGGLVLRTLNERQGDLSQGKRFRLQRAALVACPNEGTQLATPDRWQGTLGWLANLLDLFPPNPITSNAALVMHWVTWFAKVGVAAAEG,failed
2,RIPDIEEVELAEAPADKVLPDGFYVTTNHPTFVRYGGEWLPVEDISMDRVIVIRDGRAYCIPIDEVVRGDRVVVGEKGVRVVPPERPRKSTVFEFMGGRVSSERPTERMIEAIAREIYELKLKGGKIAVVAGPAVDHTSARNALAALIRDGYVDLLLSGNALAVHDIEISIFGTSLGMDICKGRPVPGGNRHHLYTISKVIAAGGIKKAIEKGIIKDGIMYECVKNNVPFILAGSIRDDGPLPEVITDVMVAKKKMKEALRGINMVIMLATMLHSIAVGNLLPSYVKTICVDMNPSTVTKLMDRGTHQAIGVVTDVGLFLPLLYLKIKE,failed
3,RIVGELEQMVSEDVPLDHRVHARIIGARGKAIRKIMDEFKVDIRFPQSGAPDPNCVTVTGLPENVEEAIDHILNLEEEYLAD,not failed
4,RLAHVSAASRELARALEPDAVMAVLAGILRERLGFYRVTVALVREGALVGHLTRRGEDLYWTEGRSRIRLPVATSPDPMAQAVRERRTRIVPREALPPHLAEGVGASVAYVPVLVEEEALGCVAVDHGPGGPPVTEEEVEYVELLAGVAGVALRNAQLYRERTALSLALAAERKRLS,failed
5,RLKLLYDAGLGIGTTLDVLRTADELAQVAVPRFADFVTVDLADAVLHGEEPAPTATDLRRTAVCGIRDDHPLYELGQLIDFLPSTPQARGYGSGYSELVTDLSTATGWHAQDPERTKAIIDYGIHSLIAAPIQARGVVLGMANFWRSKQHEPFVEEEMSLAEELVARAAVSIDNARRYTREHALAVTLQRSL,not failed
6,RLNFLDTLGRAVTEATDPDQIMAITTRMLVEHLGLSSCAYAVMDPDEDGFTICGDAVTPGSPRLVGHYHLHDFGRLAVSRLRSGLALVINDNLRELAADEAATYQAIGITATICMPLIKGGRLTALMAIHDRVPRAWTDYEQTLISEVTERCWAHIQRAQAHAEVREAMAALEALNTTLE,failed
7,RLQPIIVPGWQGSGPGHWQTHWSRTLPHAVRLQQRDWHQPQRAEWVAALAAAVDAAPTPVLLVAHSLGCLVSAALPIALRAKVAGALLVAPADVERPGAPAAIAAFGPVPRQSLPYQSVVIASDDDPYCRLERARQFAQDWGSRLVVLQGAGHINADSQLGAWPQGLKQLAALRRRACW,failed
8,RLRQPMLRTGDQWQPIEWQAAFDLVAERLYAIQQQHGQNAVAVYQGNPSVHNYGLMTHSNYFLGLLKTRNRFSATSVDQLPHHLTSFLMYGHGMLLPIPDIDHTDFMLILGGNPLASNGSIMTVPDVEKRLKAIQQRGGKLVVVDPRRSETAAIADQHVFVRPGGDAALLFGLLNTLFEEGLTRESHLPVDGLDHVRHSIAGFSAEAMSPRCGIAAVQIRQLARDFAGADTALCYGRMGVSTQAFGTLCHWLAQLINLVTGNLDRVGGTLCTEPAVDLVSSTSGGHFNVWQSRVSGLPEYGGELPVSALAEEMLVEGQGQVRALVTVAGNPVLSTPNGRQLDQALEGLEFMLSIDLYINETTRHADLILPSTSALENDHYDTTFNTLAVRNVTRFNRAIFDKPEGALHDWEIFVGLAASFAAKAQRELKPTVPPAQMIDRVLRAGRYGAASPHNLSLETLASHPHGMDLGALKPNLTDRLKTANGRIQAAP,failed
9,RNFLNNQQIRAQVHRRILEQLPTEGEIVLLGHSLGSVIAADLLRRLPPELTVKGFVTIGSPLANGQFNVDDLFKLLRTPLSNVSWWVNFWSGS,failed
10,RNTNPGIKCFAVRSLGWVEMTEEELAPGRSSVAVNNCIRQLSYHKNNLHDPMSGGWGEG,failed
11,RPSWGYARSMAGRLAGATAVLDVQTGGGEVLDFALEAAGPHRAPLVAATEGWAPNVAQATRLLRPRGVPVVASADDAPLPFADGAFDLVVSRHPVEPHWDEVARVLMPGGTYFAQHVGPASVFELIEYFLGPLPEDSRRHRDPERERADAEAAGLEVVELRAERLRMEFLDIGAVVHFLRKVVWMVPGFTVEAYRDRLRDLHERIEADGPFVAHSSRHLFDVRKP,failed
12,RQRSLSTSGESLYHVLGLDKNATSDDIKKSYRKLALKYHPDKNPDNPEAADKFKEINNAHAILTDATKRNIYDKYGSLGLYVAEQFGEENVNTYFV,not failed
13,RQVTDSDETEELIHLLLDNYAEGKIVKLLFMSENATQPVISQVAKENDVMLNVLHGNLTQTQNGAYGTLYVQVLGTEEAIEASLTQLRQLKVETEVLER,not failed
14,RRKVGVLVDGPNMLRKEFNINLKEIREILSEYGDIKIAKVFLNQYATEKLVEAIENQGFEPIVTSGDVDVRMAVEAMELIYNDSIDAVALVTRDADFKAVLMKAMEMGKETIIIGAEPGFSTALKNSADIAIVLNEDEE,failed
15,RRLPTVLLKLRMAQHLQAAVAFVEQGHVRVGPDVVTDPAFLVTRSMEDFVTWVDSSKI,not failed
16,RSRIDTALNRGRCGLWDWDLSRGRIFWSQSMFTILGLESRNDLLTFGEVNALVKGEDIDLFAIADELMAGRVDHIDHSFQMRHAHGHWIWLRMRCELTQEAGATEKHLIGIAVDITEQKSLAERSVEADLRLRDAIETIPEAFVLWDAENRLVLCNSHFQRL,failed
17,RSRRFAHLQLFAHLELPCWARIRDLLNIGLPIGISILMEGGLFIVTTLLIGRFGTDEIAAHQIALSVAQLCFMIPMGVAEATTVRIGHAVGRCDLLVMRRVAWAGYAIVIGTQTLSASVLLLGYDVIVAAYTDDLVVASLASKLLLFAAIFQFPDGLQMLSSGVLRGMKDTRVPM,failed

row,Sequence,protein production
1,RTALRTEYALRQEAQAARKHAEGILASISDGFIALDEQYRFTYVNAAAERLIASTAEELIGKVYWDVYPMMLGTKIEQAYRRAMTERVACEFESYHPPSKRWFELRVAPTNGKSISVYFRDITEQKKAEAALRDINEQLEEQV,failed
2,RTFESVADLAAAAGEKVGQSDWVTITQEEVNLFADATGDHQWIHVDPERAAAGPFGTTIAHGFMTLALLPRLQHQMYTVKGVKLAINYGLNKVRFPAPVPVGSRVRATSSLVGVEDLGNGTVQATVSTTVEVEGSAKPACVAESIVRYVA,not failed
3,RTHTGEKPYACSHCDKTFRQKQLLDMHFKRYHDPNFVPAAFVCSKCGKTFTRRNTMARHADNCAGPDGVEGEN,not failed
4,RYTNILVPVDSSDAAQAAFTEAVNIAQRHQANLTALYVVDDSAYHTPALDPVLSELLDAEAAHAKDAMRQRQQFVATTSAPNLKTEISYGIPKHTIEDYAKQHPEIDLIVLGATGTNSPHRVAVGSTTSYVVDHAPCNVIVIR,not failed
5,SAAPGPALCLFDVDGTLTAPRQKITKEMDDFLQKLRQKIKIGVVGGSDFEKVQEQLGNDVVEKYDYVFPENGLVAYKDGKLLCRQNIQSHLGEALIQDLINYCLSYIAKIKLPKKRGTFIEFRNGMLNVSPIGRSCSQEERIEFYELDKKENIRQKFVADLRKEFAGKGLTFSIGGQISFDVFPDGWDKRYCLRHVENDGYKTIYFFGDKTMPGGNDHEIFTDPRTMGYSVTAPEDTRRICELLFS,not failed
6,SAAPVDLELKKAFTELQAKVIDTQQKVKLADIQIEQLNRTKKHAHLTDTEIMTLVDETNMYEGVGRMFILQSKEAIHSQLLEKQKIAEEKIKELEQKKSYLERSVKEAEDNIREMLMARRAQ,failed
7,SADQIRQSVRHSLKDILMKRLTDSNLKVPEEKAAKVATKIEKELFSFFRDTDAKYKNKYRSLMFNLKDPKNNILFKKVLKGEVTPDHLIRMSPEELASKELAAWRRR,not failed
8,SAFQAAAARLGAPVSHDFCAISLSDLMTPWEVIEKRIEAAASADFVTAVYNPRSRDRYWQIHRFRELFLRHRSPSTPVGIVRNVTRKDESVVLTTLGEFDPDSLDMFTMMLVGNSTTF,not failed
9,SAKNAYTKLGTDDNAQLLDIRATADFRQVGSPNIKGLGKKAVSTVYNGEDKPGFLKKLSLKFKDPENTTLYILDKFDGNSELVAELVALNGFKSAYAIKDGAEGPRGWLNSSLPWIEPKKT,not failed
10,SARHFGMALAPWDVMGGGRFQSKKAMEERRKNGEGIRSFVGASEQTDAEIKISEALAKIAEEHGTESVTAIAIAYVRSKAKNFFPSVEGGKIEDLKENIKALSIDLTPDNIKYLESIVPFDIGFPNNFIVLNSLTQKYGTNNV,not failed
11,SASRGKTETSKLKQNLEEQLDRLMQQLQDLEECREELDTDEYEETKKETLEQLSEFNDSLKKIMSGNMTLVDELSGMQLAIQAAISQAFKTPEVIRLFAKKQPGQLRTRLAEMDRDLMVGKLERDLYTQQKVEILTALRKLGEKLTADDEAFLSANAGAILSQFEKVSTDLGSGDKILALASFEVEKTKK,not failed
12,SDDDNPTVDPANIDYTPENASSWHNYMRNVAALLKTDATNLYNAWNSSYKGGESYASLFKAHSGSPYASALSCVEEIVDKCAEIANEVGTAKIGDPYNLYKAGNTEEALYAVESWYSWHSRDDYTNNIYSIRNAYYGSLDGNINANSLSTVIAGANSSLDTKIKNAIQKAAKAIQDIPQPFRNHIPSNETVAAMDACAELESILKNDLKSYIANNSNNINTDAVLNPVVTQYVDAVVVPTYKSLKEKNDALYNAVIVLADNPSNSAFETACDAWITAREPWEKSEAFLFGPVDEMGLDPNMDSWPLDQNAIVQILNSQSWSDLEWSEGDDEAAVESAQNVRGFHTLEFLLYKNGEPRKVQ,not failed
13,SDNEFPDFDYQTVYFANQYGLRTIELGESEFVDNTLDNQHKMVIKAAWGGGYTNRNNVVINFKVDESLCDNLYFKDTDQPLVPMPASYYTLASDRIAIPKGQIMAGVEVQLTDDFFADEKSISENYVIPLLMTNVQGADSILQGKPVVENPVLTNAGDWSILPQNFVLYAVKYVNPWHGEYLRRGIDHATVAGTSKDIIRHEQFVENDEVVNISTKSMKDNLLTLKTKDESGKDISYTVRLSFAEDGSCTVHSGSQNVVVSGSGKFVSKGEKNSLGGKDRNAIYLDYTVNLTDNNIQLATKDTLVLRTRNVYGGKSLEVVRK,not failed
14,SDPDADRIGVAVRNNEGRMVLINGNEICSLLIYYSIMRRKELGDLHPDDYIVKTIVTTELIRDIAKKEHVSMFDCYTGFKWIAAVIRENEGRRRYIGGGEESYGFLWEDFIRDKSSVSACALFCEMAAWALDRGMSVYRLIRSIYLEYGLYYE,failed
15,SDRKVAREFRHKVDFLIENDAEKDYLYDVLRMYHQTMDVAVLVGDLKLVINEPSRLPLFDAIRPLIPLKHQVEYDQLTPRRSRKLKEVRLDRLHPEGLGLSVRGGLEFGCGLFISHLIKGGQADSVGLQVGDEIVRINGYSISSCTHEEVINLIRTKKTVSIKVRHIGLIPVKSSPDEPLTWQYVDQFVSESGGVRGSLGSPGNRENKEKKVFISLVGSRGLGCSISSGPIQKPGIFISHVKPGSLSAEVGLEIGDQIVEVNGVDFSNLDHKEGRELFMTDRERLAEARQRELQRQELLMQKRLAMESNKILQEQQEMERQRRKEIAQKAAEENERYRKEMEQIVEEEEKFKKQWEEDWGSKEQLLLPKTITAEVHPVPLRKPKYDQGVEPELEPADDLDGGTEEQGEQDFRKYEEGFDPYSMFTPEQIMGKDVRLLRIKKEGSLDLALEGGVDSPIGKVVVSAVYERGAAERHGGIVKGDEIMAINGKIVTDYTLAEADAALQKAWNQGGDWIDLVVAVCPPKEYDDELTFF,failed
16,SDSTAGTDAVAVGGTFQFHSPDGKMEIFYDEADRQQLPDIGGDSLMEEGTQINLSDFENQVVILNAWGQWCAPCRSESDDLQIIHEELQAAGNGDTPGGTVLGINVRDYSRDIAQDFVTDNGLDYPSIYDPPFMTAASLGGVPASVIPTTIVLDKQHRPAAVFLREVTSKDVLDVALPLVDEA,not failed
